The values that follow come from patent US20150098939A1 (Sanofi, published 2015).

Some results are limits rather than exact numbers.

The target in test [1] is T1, hGPVI-hFc fusion protein (human).
T1 construct: also called GPVI-Fc; human GPVI-Fc fusion protein
The test can be described thus: competition ELISA: purified IgG pre-incubated with hGPVI-Fc, mixture added to collagen-coated plate, bound GPVI-Fc detected with anti-human IgG-Fc-HRP (OD 450 nm); blocked ligand: collagen. As to the method:
(§1) A secondary screening was performed to characterize functional properties of all human GPVI-specific mAbs for their ability to block the binding of collagen to human GPVI-Fc fusion protein in a competition ELISA binding assay. Custom-made collagen coated 96-well plates (Pierce) were used. Pre-incubated mixture of human GPVI-Fc fusion protein and hybridoma supernatants were added to the plate and collagen-human GPVI-Fc complex was detected by using goat anti-human IgG-Fc conjugated with horseradish peroxidase (Sigma; #A0170). The antibody binding was visualized by adding TMB-H2O2 buffer and read at a wavelength of 450 nm. […] The blocking properties of pre-selected mAbs to human GPVI were confirmed to be dose-dependent using a competition ELISA assay as shown in FIG. 1A.
In general terms: ELISA stands for enzyme-linked immunosorbent assay.

Test [2] has as its target T1, hGPVI-hFc fusion protein. The test can be described thus: competition ELISA, hGPVI-Fc on collagen-coated plates (FIG. 1A). As to the method:
as §1

The target in test [3] is T2, human GPVI protein, soluble extracellular domain (D1 and D2) (human, UniProt Q9HCN6 21-267).
T2 construct: extracellular domain; also called hGPVI; human glycoprotein VI
T2 sequence (looked up): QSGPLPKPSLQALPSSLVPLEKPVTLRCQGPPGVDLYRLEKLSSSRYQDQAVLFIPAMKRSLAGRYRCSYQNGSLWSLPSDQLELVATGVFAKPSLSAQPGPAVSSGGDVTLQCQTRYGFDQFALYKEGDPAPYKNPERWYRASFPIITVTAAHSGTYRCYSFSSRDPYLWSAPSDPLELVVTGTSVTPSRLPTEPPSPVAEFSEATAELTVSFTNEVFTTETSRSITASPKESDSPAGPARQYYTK
The test can be described thus: SPR (BIAcore 2000), mAb captured by anti-Fc, human GPVI in solution. As to the method:
A last screening was performed by Surface Plasmon Resonance (BIAcore 2000) to evaluate binding properties of GPVI blocking antibodies. In this analysis, we evaluated the interaction of the human GPVI protein with the anti-human GPVI mAbs fixed to anti-Fc antibody covalently linked to CM chips. Binding kinetics of the individual mAbs were performed using the protocol described by Canziani et al 2004. Anal. Biochem. 325: 301-307.
(SPR reads the build-up and loss of mass on a sensor chip optically.)

The target in test [4] is T1, hGPVI-hFc fusion protein. Kind of test: DELFIA competition assay: IgG preincubated with GPVI-Fc (3 µg/ml), binding to collagen-coated plate, Test 1. How it is done:
(§2) Collagen coated 384 well plates (Pierce) were blocked with 3% BSA for 2 h. Increasing concentrations of IgG or its corresponding Fab fragment produced by Ficin cleavage (0.3-20 μg/ml) were incubated with recombinant GPVI (Fc-fusion protein of the extracellular GPVI domain; 3 μg/ml) for 30 min. The GPVI-IgG mixture was added to collagen coated plates and incubated for 1 h at RT. Next, 384 well plates were washed (DELFIA wash buffer, Perkin Elmer) five times and Eu-labelled anti-human IgG (100 ng/ml Perkin Elmer) was added. Following 1 h incubation at room temperature plates were washed again five times, enhancement solution (Perkin Elmer) was added and incubated for 10 min. Fluorescence was detected at 360/612 nm using a Tecan Ultra reader.

Test [5] has as its target T3, primate GPVI-Fc fusion protein (Macaca fascicularis) (Macaca fascicularis (cynomolgus), UniProt Q9HCN6 21-205 (human entry)).
T3 construct: also called Maccaca GPVI-Fc; primate GPVI-Fc protein; not shown: Fc part of the primate GPVI-Fc fusion is not described
T3 chain: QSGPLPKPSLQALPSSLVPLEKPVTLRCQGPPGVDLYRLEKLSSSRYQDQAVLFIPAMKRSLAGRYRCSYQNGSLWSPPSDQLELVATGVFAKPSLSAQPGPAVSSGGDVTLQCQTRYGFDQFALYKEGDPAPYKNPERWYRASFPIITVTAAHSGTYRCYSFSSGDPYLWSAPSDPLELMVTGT
The test can be described thus: competition ELISA against Maccaca GPVI-Fc: inhibition by purified IgG of the binding of GPVI-Fc to collagen; blocked ligand: collagen.

Test [6] has as its target T1, hGPVI-hFc fusion protein. Kind of test: DELFIA competition assay: IgG preincubated with GPVI-Fc (3 µg/ml), binding to collagen-coated plate, Test 2. As to the method: as §2
The target in test [7] is T2, human GPVI protein, soluble …. The test can be described thus: SPR (Biacore 3000), Fab immobilised, human GPVI analyte. How it is done: Surface plasmon resonance technology on a Biacore 3000 (GE Healthcare) was used for detailed kinetic characterization of purified antibody fragments. A direct binding assay was used with the anti-GPVI Fab as the ligand and human GPVI as analyte. Typically, 500 RU of anti-GPVI Fab were immobilized on a research grade CM5 chip by amine reactive coupling, resulting in an Rmax of 200 RU for the bound GPVI molecule. Binding kinetics were measured over a concentration range typically between 0.8 to 208 nM in HBS-EP (10 mM HEPES pH 7.4, 150 mM NaCl, 3 mM EDTA, 0.005% Surfactant P20) at a flow rate of 30 μl/min. Chip surfaces were regenerated with 10 mM glycine pH 2.0. Kinetic parameters were analyzed and calculated in the BIAevaluation program package (version 4.1) using a flow cell without immobilized Fab as reference. A 1:1 binding model with mass transfer was applied for a global fit of the data for curves.

In test [8] the target is T1, hGPVI-hFc fusion protein. The test can be described thus: DELFIA competition assay: Fab preincubated with GPVI-Fc (3 µg/ml), binding to collagen-coated plate, Test 2. How it is done: as §2
Test [9] has as its target T1, hGPVI-hFc fusion protein. Kind of test: DELFIA competition assay: Fab preincubated with GPVI-Fc (3 µg/ml), binding to collagen-coated plate, Test 1. As to the method: as §2
The target of test [10] is T2, human GPVI protein, soluble …. The test can be described thus: SPR (Biacore 3000), human GPVI immobilised, Fab analyte. How it is done:
Surface plasmon resonance technology on a Biacore 3000 (GE Healthcare) was used for detailed kinetic characterisation of purified antibody fragments. An assay with immobilised human GPVI was used. Typically, 300 RU of GPVI were immobilised on a research grade CM5 chip by amine reactive coupling, resulting in an Rmax of 200 RU for the bound antibody fragment. Binding kinetics were measured over a concentration range between 3.2 to 112 nM in HBS-EP (10 mM HEPES pH 7.4, 150 mM NaCl, 3 mM EDTA, 0.005% Surfactant P20) at a flow rate of 30 μl/min. Chip surfaces were regenerated with 10 mM glycine pH2.0. Kinetic parameters were analysed and calculated in the BIAevaluation program package (version 4.1) using a flow cell without immobilised GPVI as reference. A 1:1 binding model with mass transfer was applied for a global fit of the data for curves corresponding to analyte concentrations from 3-56 nM of Fab fragment.
Note that the Biacore assay used to measure the data in this example is different in terms of immobilized binding partner (GPVI versus the mAb/Fab fragment) and this leads to the different Biacore affinities as reported in Table 5.

B1: anti-GPVI mAb from hybridoma clone 390 (antibody, mouse IgG1, kappa, V domains shown)
VH: QVQLKESGPGLVAPSQSLSITCTVSGFSLTGYGVNWVRQPPGKGLEWLGMIWGDGSTDYNSTLKSRLSISKDNSKSQVFLKMNSLQTDDTARYYCARDLPMDYWGQGTSVTVSS
VL: DIQMTQSPSSLSASLGGKVTITCKASQDINKYIAWYQHKPGKGPSLLIHYTSTLQPGIPSRFSGSGSGRDYSFSISNLEPEDIATYYCLQYANLLTFGGGTKLEIKR
modifications: N-glycosylation site (NST) in the heavy chain variable region is occupied
notes: Mouse IgG1, kappa, purified from hybridoma; also called monoclonal antibody from clone 390; IgG from hybridoma clone 390
The term IC50 denotes the midpoint of a concentration-inhibition curve. Low values mean higher potency, high ones lower potency. The term Kd denotes the constant that tells how readily two partners part at equilibrium. A higher Kd goes with lower affinity. One may read the koff as a measure of how fast the partners let go of each other. As a reminder, the kon is a measure of how fast the partners come together. As for B1, the “IC50 (read off the curve)” value with hGPVI-hFc fusion protein [1] was roughly 3 µg/mL; in test [5] it was roughly 5 µg/mL. In addition, the half-inhibitory concentration (IC50) in the test with hGPVI-hFc fusion protein [2] is less than 10 µg/mL; with hGPVI-hFc fusion protein [4], 5.6 µg/mL; in the test with hGPVI-hFc fusion protein [6], 5 µg/mL. This molecule also showed a Kd in test [3] of 0.04 nM. This molecule came in with a koff in [3] of 4e-06 s⁻¹. In addition, the kon in test [3] worked out at 108000 M⁻¹ s⁻¹.

B2: Fab 390-G (recombinant glycosylated Fab of clone 390) (Fab, V domains shown)
VH: QVQLKESGPGLVAPSQSLSITCTVSGFSLTGYGVNWVRQPPGKGLEWLGMIWGDGSTDYNSTLKSRLSISKDNSKSQVFLKMNSLQTDDTARYYCARDLPMDYWGQGTSVTVSS
VL: DIQMTQSPSSLSASLGGKVTITCKASQDINKYIAWYQHKPGKGPSLLIHYTSTLQPGIPSRFSGSGSGRDYSFSISNLEPEDIATYYCLQYANLLTFGGGTKLEIKR
modifications: additional N-glycosylation motif in VH kept
notes: Chimeric Fab from HEK293: VL fused to human constant kappa (IGKC, Q502W4), VH to CH1 of human IGHG1 (Q569F4)
In test [7], B2 gave a Kd of 0.05 nM, a koff of 1.5e-05 s⁻¹ and a kon of 320000 M⁻¹ s⁻¹.

B3: Fab produced by Ficin cleavage of IgG from hybridoma clone 390 (Fab, V domains shown)
VH: QVQLKESGPGLVAPSQSLSITCTVSGFSLTGYGVNWVRQPPGKGLEWLGMIWGDGSTDYNSTLKSRLSISKDNSKSQVFLKMNSLQTDDTARYYCARDLPMDYWGQGTSVTVSS
VL: DIQMTQSPSSLSASLGGKVTITCKASQDINKYIAWYQHKPGKGPSLLIHYTSTLQPGIPSRFSGSGSGRDYSFSISNLEPEDIATYYCLQYANLLTFGGGTKLEIKR
notes: Proteolytic Fab; also called Fab (Ficin cleavage); proteolytic Fab fragment
With B3, the IC50 with hGPVI-hFc fusion protein [8] was 1.1 µg/mL; in the test with hGPVI-hFc fusion protein [9], 1.3 µg/mL.

B4: Fab 390-nG (recombinant non-glycosylated Fab of clone 390) (Fab, V domains shown)
VH: QVQLKESGPGLVAPSQSLSITCTVSGFSLTGYGVNWVRQPPGKGLEWLGMIWGDGSTDYQSTLKSRLSISKDNSKSQVFLKMNSLQTDDTARYYCARDLPMDYWGQGTSVTVSS
VL: DIQMTQSPSSLSASLGGKVTITCKASQDINKYIAWYQHKPGKGPSLLIHYTSTLQPGIPSRFSGSGSGRDYSFSISNLEPEDIATYYCLQYANLLTFGGGTKLEIKR
notes: Chimeric Fab from HEK293: VL fused to human constant kappa (IGKC, Q502W4); also called ANTI-GPVI Fab 390-nG construct
In test [7], B4 showed a Kd of 0.06 nM, a koff of 2.2e-05 s⁻¹ and a kon of 348000 M⁻¹ s⁻¹. For the same molecule, in test [10], the Kd is 0.2 nM, the off-rate constant (koff) was determined as 2e-05 s⁻¹ and the kon turned out to be 102000 M⁻¹ s⁻¹.
